Experimental data reported in patent publication EP4635986A1 (National and Kapodistrian University of Athens, dated 2025).

Columns and labels:
PEc fragment aa 13-24 = biological target: T1, PEc fragment aa 13-24 (human); assay: dot blot, peptide on nitrocellulose, 2.5 µg/mL MAb
T1 construct: also called the last 12 amino acids
T1 peptide: QRRKGSTFEERK

[1] = biological target: T2, human Ec peptide (PEc), whole, 24 amino acids (human); assay: dot blot, peptide on nitrocellulose, 2.5 µg/mL MAb
T2 construct: also called human PEc; whole PEc
T2 peptide: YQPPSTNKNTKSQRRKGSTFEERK

PEc fragment aa 1-12 = biological target: T3, PEc fragment aa 1-12 (human); assay: dot blot on nitrocellulose
T3 peptide: YQPPSTNKNTKS

binding result (PEc fragment aa 13-24): binds
binding result [1]: binds
binding result (PEc fragment aa 1-12): no binding
B1: anti-PEc monoclonal antibody (MAb) of Example 1 (antibody, mouse IgG1, kappa, V domains shown)
VH: EVQLQQSGAELVRSGASVKLSCAASGFNLKDYYIHWVKQRPEQGLEWIGWIDPENGDTEYAPKFQGRATMTADTSSNTAYLHLSSLTSEDTAVYYCFANDVDCWGQGTTLTVSS
VL: DVVMTQPPLSLPVSLGDQASISCRSSQSLVHSNGKTYLHWYLQKPGQSPKLLIYKLSNRFSGVPDRFSGSGSGTDFTLKISRVEAEDLGVYFCFQSTHIPYTFGGGSKLEIRR
notes: Obtained from a mouse hybridoma, then expressed recombinantly in CHO cells; Called an IgG MAb; captured with anti-mouse Fc and detected with anti-mouse HRP; also called anti-PEc MAb; anti PEc MAb
